Reference: patent US20210130436A1

Molecular target: PD-L1 (human) (UniProt Q9NZQ7)
Test: cell-based or functional assay

Sequence of PD-L1 (human) (Q9NZQ7 19-290): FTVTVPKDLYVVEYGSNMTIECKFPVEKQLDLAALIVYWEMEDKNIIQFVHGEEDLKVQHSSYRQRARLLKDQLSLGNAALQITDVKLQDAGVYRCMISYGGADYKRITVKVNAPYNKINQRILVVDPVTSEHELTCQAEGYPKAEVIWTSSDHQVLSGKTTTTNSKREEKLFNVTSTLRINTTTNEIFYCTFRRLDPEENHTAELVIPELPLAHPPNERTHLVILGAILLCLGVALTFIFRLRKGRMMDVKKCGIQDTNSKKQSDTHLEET

RLU, Jurkat/IL2 + CHO/OKT3/PD-L1 Reporter Assay, CD80 Conc 5.0 nM [RLU]	Jurkat/IL2 + CHO/OKT3/PD-L1 reporter assay, RLU at CD80 Conc 5.0 nM [RLU]	Substance
963		CD80 IgV-Fc (inert) H18Y/E35D/M47V/V68M/A71G (from UniProt P33681 35-141) (Fc fusion)
	1350	CD80 IgV-Fc E35D/M47V (from UniProt P33681 35-141) (Fc fusion)
	1830	CD80 IgV-Fc Q27H/E35D/M47I (from UniProt P33681 35-141) (Fc fusion)
	1760	CD80 IgV-Fc M47I/A71G (from UniProt P33681 35-141) (Fc fusion)
771		CD80 IgV-Fc (inert) H18V/A26D/E35D/M47V/V68M/A71G/D90G (from UniProt P33681 35-141) (Fc fusion)
	1480	CD80 IgV-Fc E35D/M43I/D46E/A71G/L85M (from UniProt P33681 35-141) (Fc fusion)
	2580	CD80 IgV-Fc V22A/E35D/M47L/A71G (from UniProt P33681 35-141) (Fc fusion)
	1400	CD80 IgV-Fc E35D/M47V/T62S/L85Q (from UniProt P33681 35-141) (Fc fusion)
	1180	CD80 IgV-Fc E35D/M47V/I61V/L85M (from UniProt P33681 35-141) (Fc fusion)
